B2: human checkpoint protein hRad9, full length (other)
chain: MKCLVTGGNVKVLGKAVHSLSRIGDELYLEPLEDGLSLRTVNSSRSAYACFLFAPLFFQQYQAATPGQDLLRCKILMKSFLSVFRSLAMLEKTVEKCCISLNGRSSRLVVQLHCKFGVRKTHNLSFQDCESLQAVFDPASCPHMLRAPARVLGEAVLPFSPALAEVTLGIGRGRRVILRSYHEEEADSTAKAMVTEMCLGEEDFQQLQAQEGVAITFCLKEFRGLLSFAESANLNLSIHFDAPGRPAIFTIKDSLLDGHFVLATLSDTDSHSQDLGSPERHQPVPQLQAHSTPHPDDFANDDIDSYMIAMETTIGNEGSRVLPSISLSPGPQPPKSPGPHSEEEDEAEPSTVPGTPPPKKFRSLFFGSILAPVRSPQGPSPVLAEDSEGEG
notes: Used as GST-hRad9 on beads, as GAL4 DBD fusion (mammalian two-hybrid), as Flag-hRad9 in 293T cells and as endogenous hRad9 of CWR22R cells; also called FL-hRad9; GST-hRad9
B3: AR DNA-binding domain (AR DBD) (receptor)
chain: KTCLICGDEASGCHYGALTCGSCKVFFKRAAEGKQKYLCASRNDCTIDKFRRKNCPSCRLRKCYEAG
notes: also called GAL4-AR-DBD

Assays:
[1] = biological target: T1, ARA67 clone of the CytoTrap screen, amino acids 20-585 of PAT1 (pMyr-ARA67) (Homo sapiens, UniProt Q92624 20-585); experiment: CytoTrap Sos yeast two-hybrid, growth of cdc25H on SD/Gal(-LU) at 37° C
T1 construct: The clone matched the DNA encoding aa 20-585 of PAT1 at 99.6% identity; also called pMyr-ARA67/PAT1
T1 sequence: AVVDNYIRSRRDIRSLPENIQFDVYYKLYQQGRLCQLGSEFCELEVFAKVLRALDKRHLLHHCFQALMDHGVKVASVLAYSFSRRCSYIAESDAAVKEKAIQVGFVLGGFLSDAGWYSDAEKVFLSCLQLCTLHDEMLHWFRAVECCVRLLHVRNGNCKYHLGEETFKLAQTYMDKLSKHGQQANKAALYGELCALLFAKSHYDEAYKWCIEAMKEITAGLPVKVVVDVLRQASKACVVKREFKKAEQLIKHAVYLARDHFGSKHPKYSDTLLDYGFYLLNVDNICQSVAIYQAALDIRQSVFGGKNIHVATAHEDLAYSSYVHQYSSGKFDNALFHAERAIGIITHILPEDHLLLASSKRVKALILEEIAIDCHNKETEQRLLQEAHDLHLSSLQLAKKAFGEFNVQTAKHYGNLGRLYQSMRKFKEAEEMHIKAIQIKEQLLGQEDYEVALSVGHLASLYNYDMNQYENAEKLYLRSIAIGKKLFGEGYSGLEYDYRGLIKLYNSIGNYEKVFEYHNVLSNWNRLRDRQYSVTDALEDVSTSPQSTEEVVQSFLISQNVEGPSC

[2] = biological target: T2, AR N-terminus, full length ARN (ARN1-556) (human, UniProt P10275 1-557); experiment: GST pull-down: GST-hRad9 with 35S-labeled AR domains
T2 sequence: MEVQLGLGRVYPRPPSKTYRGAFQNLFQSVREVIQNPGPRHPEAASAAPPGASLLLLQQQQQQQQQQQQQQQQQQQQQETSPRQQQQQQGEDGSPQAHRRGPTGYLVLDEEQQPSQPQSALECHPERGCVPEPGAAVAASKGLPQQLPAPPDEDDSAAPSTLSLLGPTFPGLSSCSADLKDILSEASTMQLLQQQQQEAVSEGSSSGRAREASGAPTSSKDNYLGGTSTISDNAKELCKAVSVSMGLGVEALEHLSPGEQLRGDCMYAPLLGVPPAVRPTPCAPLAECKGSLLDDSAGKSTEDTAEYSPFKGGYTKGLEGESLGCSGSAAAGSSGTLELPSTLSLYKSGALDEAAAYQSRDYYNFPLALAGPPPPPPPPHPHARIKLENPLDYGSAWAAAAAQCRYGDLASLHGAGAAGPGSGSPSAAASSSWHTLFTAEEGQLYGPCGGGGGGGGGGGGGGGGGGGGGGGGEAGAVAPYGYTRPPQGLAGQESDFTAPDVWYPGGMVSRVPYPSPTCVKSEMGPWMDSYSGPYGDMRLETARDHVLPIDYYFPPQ

[3] = biological target: T3, VP16-AR containing the residues 37 to 919 (human, UniProt P10275 37-920); experiment: mammalian two-hybrid in PC-3 cells, GAL4 DBD-FL-hRad9 + VP16-AR; inhibited by hydroxyflutamide
T3 construct: also called pCMX-VP16-AR; full length AR fused to VP16
T3 sequence: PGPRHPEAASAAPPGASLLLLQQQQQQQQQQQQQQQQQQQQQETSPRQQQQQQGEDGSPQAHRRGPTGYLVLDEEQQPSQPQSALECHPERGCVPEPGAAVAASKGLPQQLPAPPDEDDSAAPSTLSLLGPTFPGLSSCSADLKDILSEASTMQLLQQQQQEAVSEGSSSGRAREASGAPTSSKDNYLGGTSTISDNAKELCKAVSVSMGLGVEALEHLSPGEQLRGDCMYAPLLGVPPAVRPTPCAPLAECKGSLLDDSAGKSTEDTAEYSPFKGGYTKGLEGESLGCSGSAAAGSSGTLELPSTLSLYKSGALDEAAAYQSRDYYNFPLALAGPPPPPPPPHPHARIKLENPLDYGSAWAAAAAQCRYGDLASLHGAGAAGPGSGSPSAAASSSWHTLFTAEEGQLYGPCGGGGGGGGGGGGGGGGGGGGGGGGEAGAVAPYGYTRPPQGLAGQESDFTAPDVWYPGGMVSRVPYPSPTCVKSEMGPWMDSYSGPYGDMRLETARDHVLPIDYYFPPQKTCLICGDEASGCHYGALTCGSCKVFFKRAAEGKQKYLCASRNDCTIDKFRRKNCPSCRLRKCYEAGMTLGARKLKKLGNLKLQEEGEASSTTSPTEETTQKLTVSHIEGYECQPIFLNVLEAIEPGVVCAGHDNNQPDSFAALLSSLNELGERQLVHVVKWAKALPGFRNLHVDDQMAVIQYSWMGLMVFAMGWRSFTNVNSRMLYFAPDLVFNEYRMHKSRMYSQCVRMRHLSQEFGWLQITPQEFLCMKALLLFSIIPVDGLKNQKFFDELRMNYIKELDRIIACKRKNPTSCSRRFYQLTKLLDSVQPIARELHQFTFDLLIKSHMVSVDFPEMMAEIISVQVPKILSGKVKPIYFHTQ

[4] = biological target: B2; experiment: GST pull-down: GST-hRad9 with 35S-labeled AR domains
vitamin D receptor (VDR) = biological target: T4, vitamin D receptor (VDR) (UniProt P11473 1-427); experiment: mammalian two-hybrid in PC-3 cells, pM-f-hRad9 + VP16-VDR
T4 construct: also called VP16-VDR; VP 16-VDR
T4 sequence: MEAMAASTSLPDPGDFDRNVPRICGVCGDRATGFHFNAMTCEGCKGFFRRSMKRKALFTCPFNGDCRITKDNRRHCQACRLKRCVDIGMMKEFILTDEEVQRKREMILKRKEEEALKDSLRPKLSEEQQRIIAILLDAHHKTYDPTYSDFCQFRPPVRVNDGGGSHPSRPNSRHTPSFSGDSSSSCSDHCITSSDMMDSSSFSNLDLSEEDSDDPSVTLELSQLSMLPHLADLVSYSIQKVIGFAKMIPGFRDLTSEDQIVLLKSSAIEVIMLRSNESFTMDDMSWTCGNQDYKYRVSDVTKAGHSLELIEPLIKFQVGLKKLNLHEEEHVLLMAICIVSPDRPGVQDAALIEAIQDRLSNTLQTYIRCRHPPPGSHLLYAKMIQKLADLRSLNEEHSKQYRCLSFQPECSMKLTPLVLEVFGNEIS

[5] = biological target: B3; experiment: yeast two-hybrid (AH109), GAL4-AR-DBD + f-hRad9 fused to an activation domain, 10 nM DHT
[6] = biological target: T5, estrogen receptor α (ERα) (UniProt P03372 1-595); experiment: mammalian two-hybrid in PC-3 cells, pM-f-hRad9 + VP16-ERα, in the presence of estrogen
T5 construct: also called VP16-ERα; ERcc
T5 sequence: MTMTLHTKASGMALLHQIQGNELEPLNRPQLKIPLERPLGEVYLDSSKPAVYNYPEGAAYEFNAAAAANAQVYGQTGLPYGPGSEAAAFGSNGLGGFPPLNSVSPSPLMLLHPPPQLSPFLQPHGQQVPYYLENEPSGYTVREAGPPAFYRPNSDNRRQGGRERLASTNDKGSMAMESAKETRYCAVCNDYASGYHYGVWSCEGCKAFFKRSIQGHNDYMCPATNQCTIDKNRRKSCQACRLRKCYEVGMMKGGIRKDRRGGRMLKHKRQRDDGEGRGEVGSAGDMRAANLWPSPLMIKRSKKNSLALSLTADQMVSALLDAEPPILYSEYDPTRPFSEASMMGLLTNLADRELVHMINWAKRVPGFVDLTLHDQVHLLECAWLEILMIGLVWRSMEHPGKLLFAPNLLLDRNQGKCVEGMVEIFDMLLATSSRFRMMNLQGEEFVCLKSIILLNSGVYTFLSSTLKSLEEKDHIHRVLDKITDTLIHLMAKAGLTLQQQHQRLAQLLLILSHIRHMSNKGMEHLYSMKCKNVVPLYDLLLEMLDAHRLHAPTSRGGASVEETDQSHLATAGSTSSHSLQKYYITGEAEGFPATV

AR DBD-LBD = biological target: T6, AR DBD-LBD (human, UniProt P10275 557-920); experiment: cell-based or functional assay
T6 sequence: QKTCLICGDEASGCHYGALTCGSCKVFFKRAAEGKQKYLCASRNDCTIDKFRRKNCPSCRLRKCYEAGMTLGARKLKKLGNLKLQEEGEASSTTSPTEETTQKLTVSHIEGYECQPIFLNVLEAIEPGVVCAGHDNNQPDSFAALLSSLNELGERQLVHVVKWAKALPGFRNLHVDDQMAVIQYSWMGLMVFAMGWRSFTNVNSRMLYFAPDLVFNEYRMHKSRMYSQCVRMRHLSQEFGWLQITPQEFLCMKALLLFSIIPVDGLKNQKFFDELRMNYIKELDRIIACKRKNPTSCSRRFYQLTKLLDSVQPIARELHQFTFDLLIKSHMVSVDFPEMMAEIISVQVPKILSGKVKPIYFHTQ

B1: testicular receptor 2 (TR2) (receptor)
chain: MATIEEIAHQIIEQQMGEIVTEQQTGQKIQIVTALDHNTQGKQFILTNHDGSTPSKVILARQDSTPGKVFLTTPDAAGVNQLFFTTPDLSAQHLQLLTDNSPDQGPNKVFDLCVVCGDKASGRHYGAVTCEGCKGFFKRSIRKNLVYSCRGSKDCIINKHHRNRCQYCRLQRCIAFGMKQDSVQCERKPIEVSREKSSNCAASTEKIYIRKDLRSPLTATPTFVTDSESTRSTGLLDSGMFMNIHPSGVKTESAVLMTSDKAESCQGDLSTLANVVTSLANLGKTKDLSQNSNEMSMIESLSNDDTSLCEFQEMQTNGDVSRAFDTLAKALNPGESTACQSSVAGMEGSVHLITGDSSINYTEKEGPLLSDSHVAFRLTMPSPMPEYLNVHYIGESASRLLFLSMHWALSIPSFQALGQENSISLVKAYWNELFTLGLAQCWQVMNVATILATFVNCLHNSLQQDAKVIAALIHFTRRAITDL
notes: hSos fusion (pSos-TR2) in yeast; also called pSos-TR2
Question: Does B1 bind [1]?
Answer: no binding

Question: Does B2 bind [2]?
Answer: no binding

Question: Does B2 bind [3]?
Answer: binds

Question: Does B3 bind [4]?
Answer: no binding

B4: f-hRad9, fragment of hRad9 isolated from yeast (aa 327-391) (other)
chain: LSPGPQPPKSPGPHSEEEDEAEPSTVPGTPPPKKFRSLFFGSILAPVRSPQGPSPVLAEDSEGEG
Question: Does B4 bind (vitamin D receptor (VDR))?
Answer: no binding

Question: Does B4 bind [5]?
Answer: no binding

Question: Does B4 bind [6]?
Answer: no binding

Question: What about the “reporter activity (yeast two-hybrid, liquid β-gal assay, 10 nM DHT)” value (AR DBD-LBD) of the same binder?
Answer: 10 fold
